This is an account of results in patent US20090227777A1.

In the experiment the target is ovalbumin-hippuric acid conjugate (OVA-HA) (UniProt P01012). Briefly: indirect ELISA on hippuric acid antigen, purified soluble scFv-E tag at 10-fold dilution, rabbit anti-E tag and goat anti-rabbit IgG-HRP detection. In general terms: An ELISA detects its analyte on a solid surface through an enzyme-linked reagent.
UniProt P01012, sequence (P01012 2-386 limits assumed): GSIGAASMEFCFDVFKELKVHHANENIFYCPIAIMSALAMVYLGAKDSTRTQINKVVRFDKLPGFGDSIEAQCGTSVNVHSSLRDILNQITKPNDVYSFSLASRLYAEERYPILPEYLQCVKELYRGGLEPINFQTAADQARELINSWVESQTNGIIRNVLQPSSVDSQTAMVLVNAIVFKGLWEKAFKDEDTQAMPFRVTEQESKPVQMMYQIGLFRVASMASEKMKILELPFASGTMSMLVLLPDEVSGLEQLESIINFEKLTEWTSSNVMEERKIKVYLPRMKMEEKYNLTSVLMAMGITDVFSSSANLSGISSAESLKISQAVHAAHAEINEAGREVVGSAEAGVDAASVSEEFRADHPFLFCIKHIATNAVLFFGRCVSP

B1: soluble single chain variable fragment scFv-E tag derived from 4D31G111B7 (scFv)
scFv: AAQPAEVMLVESGASVKISCKASGYSFTGYYMHWVKQSHVKTLEWVGRITPYNGATNYNQNFKDKASLTVDKSSSTAYMEFHSLTSEDSAVYYCVRMYADVWGAGTSVTVSSVKTTPPSVYPLAPGGGGSGGGGSGGGGSEIVLTQSPSSLSASLGESVTLACRGASQDIGGRLNWLQQEADGTIKRLIYATSSLDSGVPKRFSGSRSGSDYSLTISSLESEDFVDYYCLQYDRSPYTFGGGTKLEIKRGDAAPTVAA
B1 displayed an antibody titer of 0.516.
